T1: full-length Sudan GP (GPFL) (Sudan virus (SUDV), UniProt Q7T9D9 33-650)
T1 construct: also called Sudan GPFL; GP(S)FL
T1 sequence: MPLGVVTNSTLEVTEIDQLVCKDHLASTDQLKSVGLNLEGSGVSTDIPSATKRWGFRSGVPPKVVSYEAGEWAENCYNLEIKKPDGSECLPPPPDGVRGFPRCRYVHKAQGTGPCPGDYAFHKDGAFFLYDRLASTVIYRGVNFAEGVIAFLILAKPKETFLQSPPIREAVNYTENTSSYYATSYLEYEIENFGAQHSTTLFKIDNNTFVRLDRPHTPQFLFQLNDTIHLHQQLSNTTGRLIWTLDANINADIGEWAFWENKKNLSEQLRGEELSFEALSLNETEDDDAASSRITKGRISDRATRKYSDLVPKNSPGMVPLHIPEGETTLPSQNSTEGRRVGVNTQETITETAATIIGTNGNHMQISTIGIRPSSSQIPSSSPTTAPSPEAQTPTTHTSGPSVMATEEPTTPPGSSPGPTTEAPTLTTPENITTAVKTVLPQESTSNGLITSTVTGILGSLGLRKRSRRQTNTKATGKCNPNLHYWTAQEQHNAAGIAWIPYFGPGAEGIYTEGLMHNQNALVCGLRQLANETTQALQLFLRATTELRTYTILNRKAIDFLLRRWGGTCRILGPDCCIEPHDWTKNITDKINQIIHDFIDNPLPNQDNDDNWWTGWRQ

T2: SUDV GP on pseudotyped lentiviral vector (Sudan virus (SUDV), UniProt Q7T9D9 33-676)
T2 sequence: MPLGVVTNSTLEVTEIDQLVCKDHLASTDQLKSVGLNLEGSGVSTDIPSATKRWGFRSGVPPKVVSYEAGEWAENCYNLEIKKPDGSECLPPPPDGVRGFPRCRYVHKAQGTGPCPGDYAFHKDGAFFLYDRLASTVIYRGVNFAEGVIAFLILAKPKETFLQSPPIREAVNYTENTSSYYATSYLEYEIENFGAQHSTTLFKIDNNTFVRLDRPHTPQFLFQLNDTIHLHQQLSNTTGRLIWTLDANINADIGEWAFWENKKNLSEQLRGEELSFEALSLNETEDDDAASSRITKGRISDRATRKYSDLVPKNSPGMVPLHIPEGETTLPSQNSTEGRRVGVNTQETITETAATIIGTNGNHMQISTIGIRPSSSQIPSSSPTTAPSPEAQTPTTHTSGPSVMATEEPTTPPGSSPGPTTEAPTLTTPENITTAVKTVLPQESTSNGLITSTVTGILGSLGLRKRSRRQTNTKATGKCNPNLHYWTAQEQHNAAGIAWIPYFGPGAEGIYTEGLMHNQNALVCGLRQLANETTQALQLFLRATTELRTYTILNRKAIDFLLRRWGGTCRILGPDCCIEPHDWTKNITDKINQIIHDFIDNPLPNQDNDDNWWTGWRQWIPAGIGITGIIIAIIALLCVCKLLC

B1: Fab generated from 294S (Fab, V domains shown)
VH: QVQLQESGPGLVKPSQTLSLTCTVSGGSISSGGYHWSWIRQHPGKGLEWIGNIYYNGRTYYNPSLKSRVTISVDTSENEFSLKLSSVTAADTAVYYCARDRRRPRIGHDYGMDVWGQGTKVIVSS
VL: DIQMTQSPSSLSASVGDRVTISCRASQSISNFLNWYQQKPGQAPKLLIYTASNLQSGVPSRFSGSGSGTDFTLTISSLQPEDFATYYCQQIYNTGMYSFGQGTKLEIK
notes: also called 294S Fab
B2: Fab generated from 523S (Fab, V domains shown)
VH: QVQLVQSGAELKKPGASVKVSCKASGYTFSDHYVHWVRQAPGQGLEWMGRINPNSGGTNYAQRFLGRVTMTRDASISTAYLDLSSLRSDDTAVYYCARSSSSWSGHYYYYMDVWGKGTTVTVSS
VL: QSVLTQPPSVSAAPGQRVTISCSGSTSNIASNFVSWYQQLPGTAPKLLIYDNHKRPSGIPDRFSGSKSGTSATLGITGLQTGDEADYYCGTWDSSLSAGVFGGGTKVTVL
notes: also called 523S Fab
B3: Fab generated from 573S (Fab, V domains shown)
VH: EVQLVESGGGLVKPGGSLRLSCAASGFTFSSYTMNWVRQAPGKGLEWVSCIRSSSSDKYYADSVKGRFTISRDNTKNSLYLQMNSLRADDTAVYYCARDLGGANNRYYFDYGMDVWGQGTTVTVSS
VL: EIVMTQSPATLSVSPGGRATLSCRASQSVYTNLAWYQQKPGQAPRLLIYDASTRATGIPARFSGSGSGTEFTLTISSLQCEDFAVYYCQHYNNWPLYTFGQGTKLEIK
notes: also called 573S Fab
B4: Fab generated from 541S (Fab, V domains shown)
VH: QVQLVQSGAEVKKPGASVKVSCKASGYTFTNYAITWVRQAPGQGLEWMGWISAFNGQINYAQKFQGRVAMTTDTSTSTAYMELRSLRSDDTAVYYCARAPPMWFSGAKFDYWGQGTLVTVSS
VL: QSVLTQPPSVSGTPGQRVTISCSGSSSNIGSNTVNWYQQLPGTAPKLLIYSNDQRPSGVPDRFSGSKSGTSASLAISGLRSEDEADYYCAAWDETLRRVFGGGTRLTVL
notes: also called 541S Fab
B5: Fab generated from 241S (Fab, V domains shown)
VH: QVQLVQSGSELKKPGASVKVSCKASGYTFTSYTVNWVRQAPGQGLEWMGWINTNTGNPTYAQGFTGRFVFSSDTSVSTAYLQISDLKAEDTAMYYCARHVAYDLWSGHTVTFDHWGQGTLVTVSS
VL: QSALTQPPSASGSPGQSVTISCTGTSSDVGAYNYVSWYQQHPGKAPKLIIYEVTKRPSGVPDRFSGSKSGNTASLTVSGLQAEDEADYYCSSKAGGKTYVFGTGTKVTVL
B6: Fab generated from 354S (Fab, V domains shown)
VH: QVQLVQSGAEVKKPGASVKVSCKASGYSFASYYIHWVRQAPGQGLEWMGIINPSGGTTSYAQKFQGRVTMTRDTSTSTVYMELSSLGSEDTAVYYCARIVDRVTIYLNGVDNYWGQGTLVTVSS
VL: EIVMTQSPATLSVSPGERVTLSCRASQSVSSNLAWFQQTPGQAPRLLIYGASTRASGVPARFSGSGSGTEFTLTISSLQSEDFAVYYCLQYNNWPPGWKYGFGQGTKLEIK
notes: also called 354S Fab
B7: Fab generated from 503S (Fab, V domains shown)
VH: QVQLVQSGAEVKKPGASVRVSCKASGYTFTSYYMHWVRQAPGQGLEWMGQINPSGGTTRYERKFQGRITVTRDTSTSTVYLELSSLRSEDTASYFCACLRDKVTYYDLWSGVDSVWGQGTLVTVSS
VL: DIQMTQSPSSLSASVGDRVTITCRASQDISTWLAWYQQKPEKAPKSLIYAASTLETGVPSRFSGSGSGTDFTLTISSLQPEDFATYYCEQYNGFPRTFGQGTKLDIK
notes: also called 503S Fab
B8: Fab generated from 233S (Fab, V domains shown)
VH: EVQLVESGGGLGQPGGSLRLSCAASGFKFKIFGMNWVRQAPGKGLEWVSYISSRSSIIYYADSVKGRFTISRDDATNSLFLQMNSLRDEDTAMYYCVRDYNLIDFVWGSLFDYWGQGILVTVSS
VL: AIRMTQSPSSLSASTGDSVTITCRASQNIASYLAWYQQIPGKAPKLLIYVASTLQSGVPSRFSGSGSGTDFTLTISSLQSEDFATYYCQQYYRYPPTFGQGTKVEIK
B9: antibody 377S (antibody, V domains shown)
VH: QVQLVQSGAEVKKPGSSVKVSCKASGGTFSNYAINWVRQAPGQGLEWMGRTIPFLGLTNYAENFQARVTITADKSTGTSYMQLSSLRSEDTAVYFCAKAATSGWSPFDNWGQGTLVTVSS
VL: EIVLTQSPGTLSLSPGERATLSCRASQSISSSYFGWYQQKPGQAPRLLIYGASRRAAGIPDRFSCSGSGTDFTLTISRLEPEDFGVYYCQQYGSSPTFGQGTKVEIK
B10: antibody 315S (antibody, V domains shown)
VH: EVQLVESGGGVVQPGRSLRLSCAASGFTFKTYTMHWVRQAPGKGLEWVAVITDDGVNKKYADSVKGRFTISRDNSKNTLYLQMNSLRLEDTAVYYCARSVVVLAAYPLDYWGQGTMVTVSS
VL: DIQMTQSPSSLSASVGDRVTITCRASQTISTYLHWYQQRPGKAPKLLIYAASSLQSGVPSRVSGSGSGTDFTLTITSLQPEDFATYYCLQTYSLPLTFGGGTNVEIK
B11: antibody 203S (antibody, V domains shown)
VH: QVQLVQSGAEVKKPGSSVKVSCKASGGTFSSYAISWVRQAPGQGLEWLGRILPALGLANYAQKYQDRVKITADKSTSTAYMELSRLGSEDTAVYYCARDRWVGAARRGQYFDYWGQGTQVTVSS
VL: DIQMTQSPATLSASVGDRVTITCRASQSIGTWLAWYQQKPGKAPKLLIYDASSLESGVPPRFSGSGSETEFTLTISSLQPDDFATYYCHQYKSYSYTFGQGTKLEIK
B12: antibody 528S (antibody, V domains shown)
VH: EVQLAESGGGVVQPGRSLRLSCAASGFTFNSYGMHWVRQAPGKGLEWVAVIWDDGSKKYYADSVKGRFTISRDNSKNTLFLQMNSLRAEDTAVYYCARETIMFTFGEVIVSSRDNYYMDVWGKGTTVTVSS
VL: EIVLTQSPATLSLSPGERATLSCRASQSVSNYLAWYQQKPGQAPRLLIYDASTRAIGIPARFSGVGSGTDFTLTISSLEPEDFAVYYCQQRSNWPPLTFGGGTKVEIK

The results in this text go back to US20260209316A1 (US Dept. of Health and Human Services, published 2026).

The first assay has as its target T1, full-length Sudan GP (GPFL). The assay is described as follows: BLI, Fab, pH 5.3.
As to B1, binding was characterised by a dissociation constant (Kd) of 2.18 nM, the koff came out at 0.000377 s⁻¹ and the kon turned out to be 173000 M⁻¹ s⁻¹.

The molecule B2 registered a Kd of 1.58 nM, an off-rate constant (koff) of 0.000103 s⁻¹ and a kon of 65400 M⁻¹ s⁻¹.

With B3, the Kd came to 9.27 nM, the off-rate (koff) worked out at 0.000105 s⁻¹ and the kon was 11300 M⁻¹ s⁻¹.

In the case of B4, the Kd was 44.3 nM, the koff was found to be 0.000322 s⁻¹ and the kon worked out at 7260 M⁻¹ s⁻¹.

On to B5, for which binding was characterised by a dissociation constant (Kd) of 6.36 nM, the koff is 0.000433 s⁻¹ and the on-rate constant (kon) is 68200 M⁻¹ s⁻¹.

Consider B6, for which the Kd came to 6.12 nM, the koff is 0.000445 s⁻¹ and the kon amounted to 72700 M⁻¹ s⁻¹.

With B7, binding was characterised by a dissociation constant (Kd) of 6.58 nM, the koff is 0.000373 s⁻¹ and the association rate constant (kon) is 56700 M⁻¹ s⁻¹.

Take B8: the Kd came to 7.56 nM, the koff worked out at 0.000358 s⁻¹ and the association rate constant (kon) was 47300 M⁻¹ s⁻¹.

For another assay the target is unchanged. The assay is described as follows: BLI, Fab, pH 7.4.
As for B1, the Kd was 4.3 nM, the koff amounted to 0.00135 s⁻¹ and the association rate constant (kon) came to 314000 M⁻¹ s⁻¹.

B2 had a Kd of 1.61 nM, a koff of 0.000148 s⁻¹ and an on-rate (kon) of 91900 M⁻¹ s⁻¹.

Take B3: the dissociation constant (Kd) amounted to 24.1 nM, the koff was determined as 0.000252 s⁻¹ and the kon was 10500 M⁻¹ s⁻¹.

As to B4, the dissociation constant (Kd) is 39.5 nM, the koff amounted to 0.000482 s⁻¹ and the on-rate (kon) amounted to 12200 M⁻¹ s⁻¹.

For B5, the Kd was 3.47 nM, the koff turned out to be 0.000439 s⁻¹ and the on-rate (kon) was found to be 127000 M⁻¹ s⁻¹.

Turning to B6, the Kd came out at 8.89 nM, the off-rate (koff) stood at 0.00076 s⁻¹ and the kon was 85600 M⁻¹ s⁻¹.

Molecule B7 registered a Kd of 19.5 nM, a koff of 0.00111 s⁻¹ and an on-rate constant (kon) of 56800 M⁻¹ s⁻¹.

Consider B8, for which the Kd is 7.53 nM, the koff was 0.000543 s⁻¹ and the kon was 72100 M⁻¹ s⁻¹.

The target is the same in another assay. The experiment in a line: ELISA on coated GP.
The molecule B9 showed a concentration giving a half-maximal response (EC50) of 0.14 µg/mL.

The molecule B10 registered an EC50 of 0.01 µg/mL.

B11 yielded an EC50 of 0.5 µg/mL. This EC50 lies about 50-fold higher than the previous one.

B12: the half-maximal effective concentration (EC50) is 0.05 µg/mL.

The next assay has as its target T2, SUDV GP on pseudotyped lentiviral vector. The assay is described as follows: cell-based or functional assay.
As to B9, the “IC50, microneutralization of GP-pseudotyped lentiviral vector on HEK293 cells” value (from here on “IC50, microneutralization”) came to 0.56 µg/mL.

In the case of B10, the “IC50, microneutralization” value was determined as 0.15 µg/mL.

As to B11, the “IC50, microneutralization” value was determined as 0.04 µg/mL.

In the case of B12, the “IC50, microneutralization” value is 0.58 µg/mL.
